Experimental data: article PMC8219831, “Native mass spectrometry analyses of chaperonin complex TRiC/CCT reveal subunit N-terminal processing and re-association patterns” (Scientific Reports, 2021)

B1: human TRiC subunit CCT2 (natural protein, UniProt P78371 2-535, looked up)
chain: ASLSLAPVNIFKAGADEERAETARLTSFIGAIAIGDLVKSTLGPKGMDKILLSSGRDASLMVTNDGATILKNIGVDNPAAKVLVDMSRVQDDEVGDGTTSVTVLAAELLREAESLIAKKIHPQTIIAGWREATKAAREALLSSAVDHGSDEVKFRQDLMNIAGTTLSSKLLTHHKDHFTKLAVEAVLRLKGSGNLEAIHIIKKLGGSLADSYLDEGFLLDKKIGVNQPKRIENAKILIANTGMDTDKIKIFGSRVRVDSTAKVAEIEHAEKEKMKEKVERILKHGINCFINRQLIYNYPEQLFGAAGVMAIEHADFAGVERLALVTGGEIASTFDHPELVKLGSCKLIEEVMIGEDKLIHFSGVALGEACTIVLRGATQQILDEAERSLHDALCVLAQTVKDSRTVYGGGCSEMLMAHAVTQLANRTPGKEAVAMESYAKALRMLPTIIADNAGYDSADLVAQLRAAHSEGNTTAGLDMREGTIGDMAILGITESFQVKRQVLLSAAEAAEVILRVDNIIKAAPRKRVPDHHPC
modifications: N-terminal acetylation
notes: CCT2 subunit of human TRiC; initiator methionine removed (from the measured mass); also called CCTβ; source: Hi5 (Trichoplusia ni) cells, baculovirus pYC35 co-expressing CCT1-8; purified as hTRiC (calmodulin resin, monoQ, SEC); released by RP-HPLC or by 25% DMSO or methanol
B2: human TRiC subunit CCT4 (natural protein, UniProt P50991 2-539, looked up)
chain: PENVAPRSGATAGAAGGRGKGAYQDRDKPAQIRFSNISAAKAVADAIRTSLGPKGMDKMIQDGKGDVTITNDGATILKQMQVLHPAARMLVELSKAQDIEAGDGTTSVVIIAGSLLDSCTKLLQKGIHPTIISESFQKALEKGIEILTDMSRPVELSDRETLLNSATTSLNSKVVSQYSSLLSPMSVNAVMKVIDPATATSVDLRDIKIVKKLGGTIDDCELVEGLVLTQKVSNSGITRVEKAKIGLIQFCLSAPKTDMDNQIVVSDYAQMDRVLREERAYILNLVKQIKKTGCNVLLIQKSILRDALSDLALHFLNKMKIMVIKDIEREDIEFICKTIGTKPVAHIDQFTADMLGSAELAEEVNLNGSGKLLKITGCASPGKTVTIVVRGSNKLVIEEAERSIHDALCVIRCLVKKRALIAGGGAPEIELALRLTEYSRTLSGMESYCVRAFADAMEVIPSTLAENAGLNPISTVTELRNRHAQGEKTAGINVRKGGISNILEELVVQPLLVSVSALTLATETVRSILKIDDVVNTR
notes: CCT4 subunit of human TRiC; initiator methionine removed, proline exposed, not acetylated (from the measured mass); also called CCTδ; source: Hi5 (Trichoplusia ni) cells, baculovirus pYC35 co-expressing CCT1-8; purified as hTRiC (calmodulin resin, monoQ, SEC); released by RP-HPLC or by 25% DMSO or methanol

Experiments:
[1] = biological target: human TRiC subunit CCT8 (human) (UniProt P50990); assay: native MS; hTRiC in ammonium acetate pH 7.5 disrupted with 25% (v/v) DMSO, analysed within 30 min; dimers assigned by mass within 12 Da
[2] = biological target: the molecule itself; assay: intact mass spectrometry of reverse phase fractions (denaturing); RP-HPLC fractions of hTRiC in acetonitrile/TFA elution buffer, 0.1-0.6 μM, nanoelectrospray, QExactive Plus EMR; partially unfolded dimers; dimer masses fitted assuming disulfide formation (-2 Da)

Molecule | percent of all dimer signal [1] [%] | stoichiometry N [2]
human TRiC subunit CCT8 (from UniProt P50990 2-548) (natural protein) | 15 | –
B1 | – | 2
B2 | – | 2
